From publication PMC5841405 (2018) come the findings set out here.

Read-outs that look alike come from different tables or passages of the source.

Sequences and labels used below:
B2: Hook3_(1–160) (domain or fragment)
chain: MFSVESLERAELCESLLTWIQTFNVDAPCQTVEDLTNGVVMAQVLQKIDPAYFDENWLNRIKTEVGDNWRLKISNLKKILKGILDYNHEILGQQINDFTLPDVNLIGEHSDAAELGRMLQLILGCAVNCEQKQEYIQAIMMMEESVQHVVMTAIQELMSK

Assay [1] concerns the target MBP-LIC1FL (human). Put plainly: ITC. On the technique in general: In ITC the heat of successive injections is recorded.
Assay [2] deals with MBP-LIC1FL (human). Put plainly: ITC. The source holds these as a separate data set.
Chain of MBP-LIC1FL (human) (chain, as listed by the source): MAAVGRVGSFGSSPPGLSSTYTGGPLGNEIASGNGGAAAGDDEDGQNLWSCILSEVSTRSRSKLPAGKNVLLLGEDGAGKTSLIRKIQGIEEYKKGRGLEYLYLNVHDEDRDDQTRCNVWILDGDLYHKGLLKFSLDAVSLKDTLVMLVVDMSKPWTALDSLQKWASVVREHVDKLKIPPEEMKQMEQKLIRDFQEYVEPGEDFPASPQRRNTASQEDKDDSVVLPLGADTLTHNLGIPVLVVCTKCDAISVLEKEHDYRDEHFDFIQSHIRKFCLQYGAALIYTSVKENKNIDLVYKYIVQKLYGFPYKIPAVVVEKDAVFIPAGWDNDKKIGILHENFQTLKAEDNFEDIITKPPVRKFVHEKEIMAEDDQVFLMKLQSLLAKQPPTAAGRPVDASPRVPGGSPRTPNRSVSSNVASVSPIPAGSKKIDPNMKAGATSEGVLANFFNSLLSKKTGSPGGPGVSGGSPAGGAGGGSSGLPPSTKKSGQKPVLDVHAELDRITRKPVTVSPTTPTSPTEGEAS
Assay [3] deals with T1, BICD2_(1–98) (human, UniProt Q8TD16-1 1-98).
T1 chain: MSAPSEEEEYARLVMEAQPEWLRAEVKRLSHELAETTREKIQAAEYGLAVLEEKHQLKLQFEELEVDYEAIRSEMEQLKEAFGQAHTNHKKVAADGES
Put plainly: ITC; first site (KD1), 30°C.

The target of assay [4] is T2, Spindly_(1–142) (human, UniProt Q96EA4-1 1-142).
T2 chain: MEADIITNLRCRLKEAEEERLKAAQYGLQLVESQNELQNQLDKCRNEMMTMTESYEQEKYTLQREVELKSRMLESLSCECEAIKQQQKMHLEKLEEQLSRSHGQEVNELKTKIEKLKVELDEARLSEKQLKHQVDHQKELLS
Put plainly: ITC; first site (KD1).

Assay [5] deals with T2, Spindly_(1–142). Put plainly: ITC; second site (KD2).
The target in the assay “Hook3_(1–160)” is B2. Put plainly: ITC.
For assay [6], the target named is T1, BICD2_(1–98). Put plainly: ITC; second site (KD2), 30°C.

B1: Hook3_(1–160)A138D (domain or fragment)
chain: MFSVESLERAELCESLLTWIQTFNVDAPCQTVEDLTNGVVMAQVLQKIDPAYFDENWLNRIKTEVGDNWRLKISNLKKILKGILDYNHEILGQQINDFTLPDVNLIGEHSDAAELGRMLQLILGCAVNCEQKQEYIQDIMMMEESVQHVVMTAIQELMSK
The Kd is the concentration at which binding is half-saturated. Lower therefore signals higher affinity. Turning to B1, the Kd in the assay with MBP-LIC1FL [1] is 8.1 µM.
On to B2, for which the Kd in the assay with MBP-LIC1FL [2] worked out at 12.3 µM.
As for NMKAGATSEGVLANFFNSLLSKKTGS [LIC1_(433–458)], the Kd came out at 1500 nM with BICD2_(1–98) [3]; 3.6 µM in the assay with Spindly_(1–142) [4]; 7.6 µM with Spindly_(1–142) [5]; 6.3 µM with Hook3_(1–160); 7.5 µM with BICD2_(1–98) [6].
